Patent US20120027684A1 (IMMATICS BIOTECHNOLOGIES, published 2012)

Molecular target: HLA A*0201 (human)
Assay: ELISA-based peptide-HLA binding method (Sylvester-Hvid et al., 2002)

binding result: binds
Binder: LLGATCMFV (also called cyclin peptide CCN-001) [CCN-001]
